± gives the uncertainty stated by the source.

The data set in a line: amyloid nucleation score (Sup35N fusion, yeast selection) (log enrichment); library NNK2; higher = more nucleation; inactive = no reads after selection. An outline of the steps: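 The nucleation score, computed with DiMSum, is the log enrichment of output over input reads, centred on the mode score of non-aggregating sequences. Sequences with under 100 input reads were dropped. Reads were generated by Illumina sequencing of plasmid inserts from psi-negative yeast with Sup35N fused to peptides of 20 random codons, induced with 100 μM copper sulfate for 24 hours and grown 7 days at 30°C on medium lacking adenine and uracil.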
In the case of VSQFYSMPLTSSYWSLVSSL, the amyloid nucleation score is 0.147 ± 0.65.
VSRGNAGWS gave an amyloid nucleation score of 3.6 ± 0.075.
The same measure for VSSHNLMPNRNWMFETQLSW: -0.297 ± 1.1.
The same measure for VSSNSVWSIY: -1.01 ± 0.44; for VSTLRQGWSILQTPNYVRS: -0.219 ± 0.76.
In the case of VSVGNPFSVNRQVYCPTTEW, the amyloid nucleation score is -1.38 ± 0.62.
VSVVDGSILMNLCLRLVLRR displayed an amyloid nucleation score of -0.068 ± 0.79.
Under VTANNFKWVVIWLSWRGYGD stands -1.48 ± 1.1; under VTDQVVFSEWIAADYMFDKY, 0.491 ± 0.52; under VTIYGVLSRLNDCFFRGVWD, “inactive”.
Under VTMIPA stands -0.207 ± 0.63.
In the case of VTMKHVAGSSHDCPYAILTN, the amyloid nucleation score came out at 0.082 ± 1.
The same measure for VTNCLTIWAFMGSRRCWKAP: 3.62 ± 0.11; for VTRDFSRGIGDWLICGDILE: -1.81 ± 0.49; for VTTNWGSSVRNQAEGYRPSL: -0.067 ± 0.42.
Under VTVSVGSLYTNFATPKDRMV stands 0.357 ± 0.36; under VTVVWESDSFRYVYWLNRLE, 0.926 ± 0.48.
The substance VVAGEYGWTWFFKESLGLGM registered an amyloid nucleation score of -0.332 ± 0.49.
As for VVDCKGVLLAFSNRIFGWTT, the amyloid nucleation score is -0.064 ± 0.76.
The same measure for VVDGYYGFWVVSQEDISIYP: -0.094 ± 0.54; for VVENRALLYGGFVR: 0.135 ± 0.63.
Under VVHDNW stands 0.29 ± 0.22; under VVLQTKHSLAISGQQLIPMA, 0.32 ± 0.32.
Under VVNLDSF stands -1.95 ± 0.62; under VVNLETVCIYRKLSYKFQVR, “inactive”.
Regarding VVNRYRNTFFCVYWTSAGVL, the amyloid nucleation score was 6.65 ± 0.073.
The substance VVPFIKTRCNPV showed an amyloid nucleation score of -0.829 ± 0.33.
Under VVRPVTLRFCTKGGMYSSVG stands 0.407 ± 0.32.
The same measure for VVSERRAFVRGVFDWIITLD: -0.02 ± 0.55; for VVSFNWLEYVSNMSQMNWDG: -0.015 ± 0.63.
Take VVTKQMSRFS: the amyloid nucleation score is 0.701 ± 0.51.
Under VVTRNRISRAGGLRS stands 0.616 ± 0.39.
The same measure for VVVRGVQAGCGKPPVSRLRI: 0.838 ± 0.23; for VVYASRLC: 0.681 ± 0.35; for VVYDHILVAKFRAFVLGPFL: 4.07 ± 0.054.
Under VVYTRIEVILSGDLSPREMV stands 0.763 ± 0.24.
The substance VWEIEGEPPWVQSVCSWDPR had an amyloid nucleation score of 3.85 ± 0.057.
Turning to VWGHWPSRFSQQSRCN, the amyloid nucleation score worked out at 0.185 ± 0.5.
In the case of VWLCCLCWVQMDLANVNLWL, the amyloid nucleation score was 8.315 ± 0.053.
With VWLEACGFSRIFSLQFLVSV, the amyloid nucleation score was -0.476 ± 0.76.
For the substance VWRNRSGNITSVTFL, the amyloid nucleation score worked out at 5.23 ± 0.069.
Under VWSSLGRECPSSCIVFLSVE stands -0.464 ± 0.78.
Consider VWVKVLYYSRDICTLWSPGW, for which the amyloid nucleation score was -0.059 ± 0.5.
The same measure for VYAIHGTRYCELGAPIDKLY: 0.852 ± 0.29; for VYAMVGVSLACGCVSWKGHV: 4.75 ± 0.086.
Under VYCEDGY stands 0.641 ± 0.36.
VYEGSLCLAYERLTGMGFIK: the amyloid nucleation score was -0.382 ± 0.29.
The same measure for VYFAKRLFVLFIM: “inactive”.
The same measure for VYFELVPVGTYL: -0.214 ± 1; for VYLCARKGM: -0.287 ± 0.79; for VYLGSGFAARRSSGEQRRIS: 0.536 ± 0.66.
In turn, VYLYGPQLLSRWWIQLCCQM had an amyloid nucleation score of 2.96 ± 0.15.
Under VYRMPGVSWKYVS stands 0.501 ± 0.8; under VYRNNL, -1.84 ± 1.1.
Consider VYYSGALFQNVLYLLSFMVV, for which the amyloid nucleation score is -0.501 ± 1.1.
WAIRPSRYYITAYAVELHCD: the amyloid nucleation score came out at 9.114 ± 0.074.
With WASLGYTCFGKVRRWAPGTH, the amyloid nucleation score was 0.371 ± 0.28.
Consider WAWVYGCDGYLIGSSRLANG, for which the amyloid nucleation score worked out at 0.368 ± 0.25.
The same measure for WCCKVTGHFPDTEQYYFPPP: “inactive”; for WCKQGVGCDLGAMVELSKGG: 1.22 ± 0.28.
WCSCQPSFSKKHGEFYNLFL gave an amyloid nucleation score of 9.215 ± 0.032.
As to WCSIDLSHFVCYNLGYMR, the amyloid nucleation score was found to be 7.395 ± 0.052.
Under WDPLSSCKGACDM stands 0.717 ± 0.43.
With WDTHLYQDMGCFAHLFIRYF, the amyloid nucleation score result is “inactive”.
Under WECLGTCDVGSCLTWRIGGR stands 2.82 ± 0.18; under WELKAHVDV, 0.737 ± 0.54; under WEYTG, 0.242 ± 0.74.
As for WFDWLVYSGLDHGRFIEVLK, the amyloid nucleation score was -0.432 ± 0.74.
Under WFDYGR stands “inactive”; under WFGFGESAHLYRLREEDFHD, -0.206 ± 0.79; under WFISGISKLMRHFALKYASM, 2.5 ± 0.15.
Substance WFNFVPYHADYGNFL returned an amyloid nucleation score of 0.053 ± 1.1.
Under WFPALEYKCAQGQDRQQRPV stands 0.351 ± 0.74; under WFTYQVAYVWYGRNFDTSPA, 7.961 ± 0.067; under WGETVLYSDY, -1.01 ± 1.
The substance WGHFQEDARFTSYGVGSVLG yielded an amyloid nucleation score of -0.263 ± 1.1.
Under WGLFPLQCHLVYRLLLSFHK stands “inactive”; under WGSMYRYFVDGSWFVVDISP, -0.26 ± 0.27.
Under WGVCSQGYNVRIRVVARQKF stands “inactive”; under WHDIQALTSMDVGRYLGDAI, -0.696 ± 0.26; under WHGKVGRTAWCLGMLFYDVR, 1.02 ± 0.2.
WHGRWSTNRRRPPNKMCRLV yielded an amyloid nucleation score of 1.06 ± 0.28.
With WHKFGNNRANEGRYIMHLMH, the amyloid nucleation score was -0.282 ± 0.48.
Under WHRVFKGLS stands 0.658 ± 0.26; under WHSHMYNWWEQ, 1.09 ± 0.28; under WICFYDYWQGFSHNDCREME, -0.97 ± 0.36.
The same measure for WIDLNRRRREAL: -0.125 ± 0.34; for WIIIFSKFV: -0.695 ± 0.79; for WINVGCVCLMVMHILPI: 5.4 ± 0.073.
The same measure for WISIRSTNRRKLRHRSYATV: 0.56 ± 0.56; for WIVVSSIDSFFCVSSSPQFR: “inactive”.
As to WKGSEELRSGMAYVDGTGGE, the amyloid nucleation score was found to be 1.32 ± 0.39.
Under WKIDWTNVNPFVRPVGTTNG stands 0.917 ± 0.33; under WKSLTGYIRLIFRNFWTSHD, “inactive”.
The same measure for WLGTRWRRGWGRLLKREGIL: 1.79 ± 0.13.
Under WLLPTTSLLSSQPAQAFRDH stands -0.363 ± 0.49.
For WLPMGRAGLCYYGEFDNSCW, the amyloid nucleation score result is “inactive”.
For the substance WLPNRRNVPYAVESVCS, the amyloid nucleation score turned out to be 0.971 ± 0.33.
The same measure for WLTYRCSVYYFYVEYWKSVY: 0.256 ± 0.74.
Under WLVGHKLKYA stands 0.113 ± 0.22; under WLVIPWRCSNDRHIWLWELQ, 1.55 ± 0.53; under WLYNMTRLHIPFYARNWLNS, 0.352 ± 0.37.
Regarding WNKWSGLVLYTLGKLSY, the amyloid nucleation score was -0.648 ± 0.39.
In turn, WNLCGCAFDQLYKGVRSVNG displayed an amyloid nucleation score of 3.84 ± 0.066.
Substance WNSVIFCR returned an amyloid nucleation score of -0.704 ± 0.37.
The same measure for WNTLKVAGSVGGTAVDQVAV: 1.33 ± 0.34; for WNWRVNDGVPGMTYVKAYSS: -0.672 ± 0.42; for WPGRRRYAMCVMTKRRGGLE: 0.422 ± 0.29.
The same measure for WPVCTSIYMVGWWSVHTYHG: 0.705 ± 0.8.
The same measure for WQVYQFSCRAEGEDL: 2.48 ± 0.12.
Regarding WRDTC, the amyloid nucleation score is -0.086 ± 0.49.
In the case of WRELKSQVDWRLDILSGSYR, the amyloid nucleation score was found to be 0.971 ± 0.26.
The same measure for WRFWLPAKWISRGSFIVYWI: -0.717 ± 0.32; for WRGLGVLYVSCVDSRVSSI: -1.73 ± 0.75.
In the case of WRKCKLFFTLYHLHTVELWI, the amyloid nucleation score is -0.826 ± 0.49.
On to WRLNEDHNRYDLIPGVRGLG, for which the amyloid nucleation score is 0.519 ± 0.56.
WRMREWKWVEYCRHSVKDAL had an amyloid nucleation score of 1.54 ± 0.31.
WRNCYVYRTVLR gave an amyloid nucleation score of 2.36 ± 0.07.
Under WRQSVQ stands 1.12 ± 0.33; under WRSYDMYSSWSIYVMAMTIS, -1.11 ± 0.53.
In the case of WRVFSYYHISDRF, the amyloid nucleation score is -0.19 ± 1.1.
The same measure for WSEHQGQPNRERWWSAAGEG: 0.984 ± 0.32; for WSGLFVKKNVVFRVRNGVT: -0.089 ± 1.1; for WSHVYSV: -0.124 ± 0.76.
Under WSYGLLWPSVKLIPACPPAS stands 0.244 ± 0.42.
In turn, WSYGSNLPWLDKPNWHHETW returned an amyloid nucleation score of 1.2 ± 0.47.
Turning to WTFEFLIRVLEWRSVMFFAG, the amyloid nucleation score entry is “inactive”.
The same measure for WTKATPH: 0.12 ± 0.29; for WTLTGHVRNLKLQVCMSVY: 0.789 ± 0.6; for WVFKCVSNKERNYISCACSM: 4.79 ± 0.063.
Under WVKENI stands -0.234 ± 0.65; under WVNYFEGLMIPVSARN, -1.16 ± 0.76.
The same measure for WVSGLPHNYNSSFSTAINFS: 0.907 ± 0.3; for WWKQWRYTGYLLLSHLSNRS: -0.087 ± 0.42; for WWLMWS: 0.691 ± 0.53.
In the case of WWQGI, the amyloid nucleation score is -0.168 ± 1.1.
Take WWSSDS: the amyloid nucleation score turned out to be 1.73 ± 0.078.
Under WWVPCSLYWYSAEGPGLARA stands 0.007 ± 0.31; under WWYRLLWDKSCL, -1.06 ± 0.49.

The values above are taken from the supplement of paper PMC12042874.
